A protein production outcome set (Wang et al. 2014)

Test: label from the status in PepcDB records
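Further: failed if final PepcDB status was selected cloned or expressed and not failed if soluble or beyond.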

| Sequence | protein production |
| --- | --- |
| MKMVLFSFLLGCCSLLVSAQQPVDYVNPFIGTSNYGTTNPGAICPQGMMSVTPFNVMGSKSNKFDKDSQWWSTPYSADNNFFTGYAHVNLSGVGCPEMGSLLLMPTSGELNVDYHAYGSEYKNEVAHPGYYSNILTKYDIKTEATASMRTGLTRFTFPKGQGNILLNLGEGLTNETGATVRMVSDTEIEGSKLLGTFCYNPQAVFPIYFVMKLSKAPKQAGYWKKQREMKGVEAEWDAYSGKYKLYTKYDREMSGDDIGVWFKYDTEEDEVIEVKMGVSFVSIENARLNMNTEQPDFNFDKVRAAAGKMWNDDLSRVMVEGGTNDDKTIFYTAIYHLLIHPNIIQDVNGEYPMMESLKVGHTTGNRYTVFSLWDTYRNVSTLMTLLYPEKQLDIIRTMIDMYKESGWLPKWELYGRETLTMEGDPSIPYIVDAYMRGLRDYDIETAYEGMCKGATTPGEFNLLRPDNNDYMSKGYVPLREQYDNSVSHALEYYIADWNLSLLADALGKKEDAKLFRERAMGYKHYYCKEFGTLRPILPDGTFYSPFDPKQGENFEPSPGFHEGNAWNYTFYVPHDIKGLAKLMGGQKKFVDKLQMVFDKGYYDMANEPDIAYPYLFSYFKGEAWRTQKLVCELLGKYYHNAPNGLPGNDDTGTMSTWAIFSMMGFYPACPGDLDYVVTSPTFNKVTIRLDEKFYPKGELVIESARKTPEDIYIKEVTAGGKKLKGYTISQDELVNAGTLRFTLENKH | failed |
| MKNDRKARLILSIFRYGKNHMEKETFYHKVNYGIYKILNAVFVIGFFGTELQASQSISNNIILFHPYGIVVSGEATLGDEVVIRQQVTIGNKGTGEGADDCPIIGDRVDIGAGAKIIGGITIGENSKIGANAVVTKSFPANSILVGVPARNIASKAMNGLEHHHHHH | not failed |
| MKNFSRTGKILFSYGAIQMFWGLVMLNVNVFEHTSETIKYVILITGIVFCIISNFFKEHKSHTIT | failed |
| MKNFWKKYHKWVGLFFSFFILMFCFSGIVLNHRTLFSKAEVSRNWMPESYHYKNWNNGIIKGTLRLPDGKILAYGNAGVWKTDSCFATFADFNRGLAEGIDNRKISNIVRVANNDIWCAGLYSIYLLNHDSWKEYPIAGNDERISDITQRGDTLVILTRSYLYTSVSPYDEFRKTELKTPENYSPKTSLFRTIWLLHSGELFGTPGKLAVDFLGVVLIVLSATGIIYTLLPPFIRRRHRKRLPVKTQAKALKTSLNWHNKLGTWLIGLTLLLSVTGMCLRPPLMIPFVLVNTRPVPGSTLDSDNPWHDKLRSIRWDASRNVWLLSSSMGFYRINDLQLPPVKLKQTPPVSPMGVNVFHPQSPDEWLIGSFSGLFVWNPSTGTVLDYYTGQPPAAVHGRPLGGSLVNGFTDDLVTREVIFEYDNGARNKENNLVLPAMPDLIKQQPMSLWNFCLELHVGRCYSPFLGVFSDLFVFISGLLLTLILISGYIVYKRHHKRSKKIRMH | failed |
| MKNIAFFDFDGTITSTDSYTPFIFQTIPASRMKKGKFLLAPYILGYRLKLIRGTVLRSKIFKLGFAGLDADEIQQKGLSFSQSYLPQIIRPQALERIQWHLAQGDHVVVVSASMDVYLKPWCTQYGLDLLCSEVDTINGKITGIYKNGDCSREVKKQRILDNYDLSLYAAIYAYGDTIEDQAMLSLATHGFYRWQPINPR | failed |
| MKNIIACIDGSPTTFATCEASAWVASKINAPLILLHALDKTMRPVVSEFSGQIGLGSQEELLNELAELDEARSKVALKHGKKLLEEATEWVIKKGLTNVEQLQRHGSLLESLIDLENQLRVLVIGKLGEDQSSNKTIGSQLESIIRSIKSHTLVVT | failed |
| MKNIINILDDLTINKIAAGEVVERPSSVVKELIENSIDAGANKISIDIIDGGKSLIKITDNGIGIPSSEVEKSFLRHATSKIKKIDDLYDLYSLGFRGEALASISAVSKLEMTTKTKDEIIGTKIYVEGGKIISKEPIGFTNGTTIIIKDIFFNTPARQKFLKSTHAETINISDLINKLAIGNPNIQFKYTNNNKQMLNTPGDGKLVNTIRSIYGKEITENIIDVEFKCNHFKMNGYIGNNNIYRSNKNLQHIYINKRFVKSKIIIDAITESYKSIIPIGKHAVCFLNIEVDPSCIDVNIHPNKLEIKFEKEQEVYIELRDFLKVKLIHSNLIGKYATYSDKKTQPRIAINSREKSTDYKLRNNDLLESTPKNSNITKGKDEVIEVVTLSSEKPINEFQSVSEVLNASVEDDVKNINYLSEDSANDNIQEEFQVDGIKNEGNYYLGDSIKDSEEEYLCSSKRKFSLYGYSVIGVVFNTYIILSKDDSMYLLDQHAAHERILYERYMEKFYRQDINMQILLDPVVIEVSNVDMLQIENNLELFMKFGFELEIFGNNHIMVRCVPTIFGVPETEKFILQIIDNIEEITSNYDLKGERFASMACRSAIKANDKIYDIEIKSLLEQLEKCENPFTCPHGRPIMVEISKTEIEKMFKRIM | failed |
| MKNIKIMRLVTGEDIIGNISESQGLITIKKAFVIIPMQATPGKPVQLVLSPWQPYTDDKEIVIDDSKVITITSPKDDIIKSYESHTSEIITPSGLITET | not failed |
| MKNLYILIFACLAISAQGQQLLNSDFENWTNHPGSGGYSSYDEADNWASGNAAVNIAPGLTPPTTKTTDAQHGNAAVKLTTQSIFGQIAAGNLFTGKFQLNLSNPVKSVQMGIPYVSRPSAFNVYYKYAPVNGDSCAIYVLLTKYNTSTKKTDTIGRGHFSSTANVSVYTLLHIPVTYTSTAAPDSIAMVFTSSADGGNFRGQVGSSLTVDNFSLEFEELSIATSLAAVSAVLYPNPAQSRVALSNAPSESGTVYFYNVAGKLVSSQKWTGTVSPEFALDNMPAGFYTCKFITSDTAVFSGKLLITE | failed |
| MKNPDYEPSKPHHTPDGFRNRYPHAPRDSNGSAWKWMRERRRLGLPKPPTADLSCVPPDLAAIRRPSAVPQVTWIGHETLLLQIDGLNVLTDPVFGERASPLPFAGPRRHQPPGLSLAQLPHIDLVLLSHNHYDHLCRASVRALMRQPGGAPMFFVPLGIDRWFKRHVRGTRLSGEHVNVRAFDWDTEARFGPFSVHFCAVQHWSARGLYDRNRTLWGSWALLHPQLRFWFSGDLGYSQDTRDIGARFGHFDVAAIAVGAYEPRWFMKTQHIDPAEAVQVMQDIGARHAVGIHWGTFPLTDEPLDQPIADLANALRARDIDAERFVLFRHGETRVWDAQAARLLTPAEQQKARPRVDSLAAQ | failed |
| MKNTKFSIKKIKNISNDPKVVHTKGALLEKMGKMESAIELYKSAALDNYVKSQYTLGNIYESKKQFKEAEKWYSMAYKSGSEDAAFDLGNMYYKLDGYEYAIYWYEKIANLGYLQAQNNLGVCHFKMKDFVRCEKWLKTAADKNLGKACFNLGVLYTFLEKDDEAYEYYKKGSVLLDDDAKYNLAILNGKKKDNKSTVSLYKQLYKSGHMKGCFNLGMIMEINDNLEDAEKYYKKSADRDDVKSEYRLAYVYDRKEELGDAIYYYEKAIEKNHTLSKYRLANLYNRENEIEKAKTYYKMAAEDDITEAKNNLAGIYFEEKDYENAIKYYEDAIAVGCKSSLENLGDLYYQNQDIEKAISYYSRIPNNVSCQIKLGNIYEDLNNIEEAISWYKKASENGDTRSSYRLGCIYESLGNTKNARKYFEMASSKNHMNARIHLGRIYFREGKLEESKMMFDTPANENNVYAQHMVGLIYDMFYKDYVNSKFWYEKARAQGCVESIYNLGQIYLKLNDDAEAEKYYKEGIKYGSKKCEYMLAGLYYKKSLDMYISLANEEYDNCEEIVEGFPNLNIDFDEVLIPPFKLQEEVIDEEEYVPIYILNIKESLDSMLEGLETEMIIDEEHDS | failed |
| MKNVLILGAGGQIARHVINQLADKQTIKQTLFARQPAKIHKPYPTNSQIIMGDVLNHAALKQAMQGQDIVYANLTGEDLDIQANSVIAAMKACDVKRLIFVLSLGIYDEVPGKFVEWNNAVIGEPLKPFRRAADAIEASGLEYTILRPAWLTDEDIIDYELTSRNEPFKGTIVSRKSVAALITDIIDKPEKHIGENIGINQPGTDGDKPFFM | not failed |
| MKNVLYICIGALLAVLAFSSCNDGIDIRQDYDFSLSSWYLQKQIATGETVEIRFYLDREGDYEKAEYEIGYIQMEGKGEVSDCEGVKLVNREVKPLAEVPGLDTENPVKQVFTLFYRSTSARRSELKFFVRDNFGQEREMTVTFDTESGTTEE | failed |
| MKNYLQILRETLKAMLSKPMWLMVVASVCITSLPYMNHTALDLPVAVVDEDHSDVSRELVRLLDSAPKVAVVGYDSLPQAKRDLAWRKLYAIIVIPLNFEKRLLRGEALVIPYFGDATNRMANGQIQQDISAVYSALTNRYNAALLEREGFTATQAQVVLSPLVGQLTDLFNPGISFAAIVLPGLLSLILQHSLLLGCTRGNIMLRGGTPRYMRQPLSTRFGRYSAQLLIWTVLAMLFYVIWPHLLGYRQSASFFMLLGIVLPFLIAVIALSEFIAELLPTEESVYLTMTFITLPLFYMAGYSWPEQAMPDWVRWLADAIPSTWAIRAIAEMNQMDLPLREVSDHALVLLGMAATYALLGTLLYQYRNWRWDNVKGW | failed |
| MKPEISIIVPIYNVEKYLSKCIDSILNQSFTNFELILVNDGSNDRSGIICDEYTLKDERIRVIHKKNGGVSSARNSGISLALGKYIGFVDPDDYIKEEMYEILYNLCKKYKTDISICKLGREINGTLINNEENGEIIELDNVNGLKELFKGILYRFSLCNKLFKRECFRGVIFPEGRIHEDLSTTYRLFANAKKSIYFDYVGYIYVKRENSILTTTYNEKRLQAFIGWNEILEFMINKYPMLEDNVVACFGYSCIDHSNYILNQVIGFNNKIRLLNFIRYEVKQRFSLLVKNKILINKLKLILILLMLNSRFLIISKYKGKGVYRKRIRI | failed |
| MKPKLILMSHGRMAEETLASTQMIVGELADAAIVSMTAEDGLSGTQAKLAAILKEAGNVPTLVLADLKGGTPCNVAMMAMGTYPQLRVVAGLNLAMAIEAAVSPVENVDELAAYLTQIGQSAVTTIDLPELTDEEEFEE | not failed |
| MKPLSARQQQVLQATVHHYVDTMEPVGSRTLVQRFGIPASSATVRSAMGALEKRGLLTQPHTSAGRIPSALGYRCYVDDLLPEPGVAVQHLERELTGLSLRWAALDDLLQQLARRLTDFTGLMSLITRPQQPRAQLEAIRLVQSGDRLLVMLVEDSGRASHLNLRLPPGASDELTAIERWTDQQLEDGSINWRSLPPQLQRSGDVLRSALDHPSMSPETPLVVHGLSRLVAEPEFHSTAELRPLLELIDDQPCAVVSATDQPGVWIGEEHPQKALQACSVVQAPYRCGQEGVGQVALVGPMRMAYATAHAAVQRVARHLDLLLN | failed |
| MKPNFSRDYQLKWLFYVYCVRSEVGEEEEKKKVTKKTRKRVRFDLNVQTYEPIVPSRYENACSDDEEGKGGRSKGSSAIDKKPEDLSSRSVYPSNYRYHNCVDSFEDEDDEMGYGESDLEDEDYYTDNENDYEDDADDEDEEEEEENEQDVAPLLNPVENLAQWKAVKARPVKVKRVMKENVEEDMDDQAKPLLKEIIVNTSLSNWLASPKSLHANGSSKRSPIVDITNMENR | failed |
| MKPQLSWKVGGQQGEGIESTGEIFATAMNRKGYYLYGYRHFSSRIKGGHTNNKIRVSTTPVHAISDDLDILIAFDQETIDVNHHEMREDSIILADAKAKPVKPEGCHAQLIELPFTATAKELGTALMKNMVAIGATSALMNLNTNTFEELITNMFSKKGDKVVEVNIQALNEGYQLMQSRLPEIDGDFELESTDALPHLYMIGNDAIGLGAIAAGSQFMAAYPITPASEVMEYMIANISKVNGAVIQTEDEIAAVTMAIGANYGGVRAFTASAGPGLSLMMEAIGLSGMTETPLVIINTQRGGPSTGLPTKQEQSDLMQMIYGTHGDIPKIVVAPTDAEDAFYLTMEAFNLAEQYQCPVIVLSDLQLSLGKQTVEKLDYNRIEIKRGEIIQSDIEREEDDKGYFKRYALTSNGVSPRPIPGVKGGIHHITGVEHNEEGKPSESASNRQQQMEKRMRKIEQLLIESPVEANLQHEDADILYIGFISTKGAIQEGSNRLNQQGIKVNTIQIRQLHPFPTSVIQDAVNKAKKVVVVEHNYQGQLASIIKMNVNIHDKIENYTKYDGTPFLPHEIEEKGKIIATEIKEMV | not failed |
